Experimental data as given in IntAct's records for PubMed 16893902.

B1: Protein sprouty homolog 2 (Homo sapiens), O43597 (parent)
chain: MEARAQSGNGSQPLLQTPRDGGRQRGEPDPRDALTQQVHVLSLDQIRAIRNTNEYTEGPTVVPRPGLKPAPRPSTQHKHERLHGLPEHRQPPRLQHSQVHSSARAPLSRSISTVSSGSRSSTRTSTSSSSSEQRLLGSSFSSGPVADGIIRVQPKSELKPGELKPLSKEDLGLHAYRCEDCGKCKCKECTYPRPLPSDWICDKQCLCSAQNVIDYGTCVCCVKGLFYHCSNDDEDNCADNPCSCSQSHCCTRWSAMGVMSLFLPCLWCYLPAKGCLKLCQGCYDRVNRPGCRCKNSNTVCCKVPTVPPRNFEKPT
B2: Protein sprouty homolog 1 (Homo sapiens), O43609 (parent)
chain: MDPQNQHGSGSSLVVIQQPSLDSRQRLDYEREIQPTAILSLDQIKAIRGSNEYTEGPSVVKRPAPRTAPRQEKHERTHEIIPINVNNNYEHRHTSHLGHAVLPSNARGPILSRSTSTGSAASSGSNSSASSEQGLLGRSPPTRPVPGHRSERAIRTQPKQLIVDDLKGSLKEDLTQHKFICEQCGKCKCGECTAPRTLPSCLACNRQCLCSAESMVEYGTCMCLVKGIFYHCSNDDEGDSYSDNPCSCSQSHCCSRYLCMGAMSLFLPCLLCYPPAKGCLKLCRRCYDWIHRPGCRCKNSNTVYCKLESCPSRGQGKPS

What was measured:
cbl_human CBL, P22681 [1] = variants of: B1; conditions: with cbl_human CBL
grb2_human GRB2, P62993 [2] = variants of: B1; conditions: with grb2_human GRB2, P62993
Target sequence in this assay (P62993 whole entry, looked up): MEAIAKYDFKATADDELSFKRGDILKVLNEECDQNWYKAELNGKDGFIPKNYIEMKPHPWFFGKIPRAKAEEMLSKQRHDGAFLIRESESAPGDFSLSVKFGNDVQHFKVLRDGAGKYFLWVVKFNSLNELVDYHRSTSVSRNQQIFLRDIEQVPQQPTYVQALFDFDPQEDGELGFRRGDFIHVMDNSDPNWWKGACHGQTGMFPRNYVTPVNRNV

cbl_human CBL, P22681 [3] = variants of: B2; conditions: with cbl_human CBL; remark: listed apart in the source
grb2_human GRB2, P62993 [4] = variants of: B2; conditions: with grb2_human GRB2, P62993; remark: listed apart in the source
Target sequence in this assay (P62993 whole entry, looked up): as above

Variant | effect of a mutation on the interaction (cbl_human CBL, P22681 [1]) | effect of a mutation on the interaction (grb2_human GRB2, P62993 [2]) | effect of a mutation on the interaction (cbl_human CBL, P22681 [3]) | effect of a mutation on the interaction (grb2_human GRB2, P62993 [4])
MEARAQSGNGSQPLLQTPRDGGRQRGEPDPRDALTQQVHVLSLDQIRAIRNTNEFTEGPTVVPRPGLKPAPRPSTQHKHERLHGLPEHRQPPRLQHSQVHSSARAPLSRSISTVSSGSRSSTRTSTSSSSSEQRLLGSSFSSGPVADGIIRVQPKSELKPGELKPLSKEDLGLHAYRCEDCGKCKCKECTYPRPLPSDWICDKQCLCSAQNVIDYGTCVCCVKGLFYHCSNDDEDNCADNPCSCSQSHCCTRWSAMGVMSLFLPCLWCYLPAKGCLKLCQGCYDRVNRPGCRCKNSNTVCCKVPTVPPRNFEKPT [Y55F] | disrupting interaction | decreasing interaction |  | 
MDPQNQHGSGSSLVVIQQPSLDSRQRLDYEREIQPTAILSLDQIKAIRGSNEFTEGPSVVKRPAPRTAPRQEKHERTHEIIPINVNNNYEHRHTSHLGHAVLPSNARGPILSRSTSTGSAASSGSNSSASSEQGLLGRSPPTRPVPGHRSERAIRTQPKQLIVDDLKGSLKEDLTQHKFICEQCGKCKCGECTAPRTLPSCLACNRQCLCSAESMVEYGTCMCLVKGIFYHCSNDDEGDSYSDNPCSCSQSHCCSRYLCMGAMSLFLPCLLCYPPAKGCLKLCRRCYDWIHRPGCRCKNSNTVYCKLESCPSRGQGKPS [Y53F] |  |  | disrupting interaction | decreasing interaction
